Paper PMC9676401

Key:
[1] = biological target: Full-length FLAG-tagged MKP7 C244S (catalytically inactive, substrate-trapping) (human) (UniProt Q9BY84); assay: co-IP; COS-7 cells cotransfected for 48 h in 10% FBS DMEM with FLAG-MKP7 (WT or mutants) and p38α MAPK-HA, JNK1β-GFP or ERK2-HA; Pierce IP lysis buffer; immunoprecipitation with anti-FLAG M2 overnight and protein-G beads; immunoblot with anti-HA or anti-GFP; quantitation as MAPK/FLAG-MKP7
[2] = biological target: GFP-tagged JNK1 (JNK1β) in pEGFP-C2; assay: co-immunoprecipitation (anti-FLAG IP, anti-GFP immunoblot, densitometry); details: COS-7 cells, transient transfection 48 h; parent: est. 1.0; read off a plot

Sequence of UniProt Q9BY84 (Q9BY84 whole entry C244S): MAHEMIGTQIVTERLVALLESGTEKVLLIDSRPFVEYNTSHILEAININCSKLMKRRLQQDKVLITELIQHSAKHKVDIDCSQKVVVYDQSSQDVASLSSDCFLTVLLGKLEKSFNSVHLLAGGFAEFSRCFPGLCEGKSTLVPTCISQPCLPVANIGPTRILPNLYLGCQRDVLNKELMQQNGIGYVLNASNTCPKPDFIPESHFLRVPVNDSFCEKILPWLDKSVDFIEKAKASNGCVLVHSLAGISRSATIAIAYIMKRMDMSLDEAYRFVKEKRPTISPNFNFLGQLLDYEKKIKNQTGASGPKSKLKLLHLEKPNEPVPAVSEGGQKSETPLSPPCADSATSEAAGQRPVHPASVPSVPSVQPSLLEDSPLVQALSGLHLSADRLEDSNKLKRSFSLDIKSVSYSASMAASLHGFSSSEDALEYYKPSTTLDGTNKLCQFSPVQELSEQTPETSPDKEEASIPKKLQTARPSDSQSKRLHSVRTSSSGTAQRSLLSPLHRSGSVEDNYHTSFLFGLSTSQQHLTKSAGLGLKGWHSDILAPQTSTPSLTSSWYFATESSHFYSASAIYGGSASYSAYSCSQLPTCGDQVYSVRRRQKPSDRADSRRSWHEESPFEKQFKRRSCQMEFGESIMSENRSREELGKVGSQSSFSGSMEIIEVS
Sequence of GFP-tagged JNK1 (JNK1β) in pEGFP-C2 (P45983 whole entry): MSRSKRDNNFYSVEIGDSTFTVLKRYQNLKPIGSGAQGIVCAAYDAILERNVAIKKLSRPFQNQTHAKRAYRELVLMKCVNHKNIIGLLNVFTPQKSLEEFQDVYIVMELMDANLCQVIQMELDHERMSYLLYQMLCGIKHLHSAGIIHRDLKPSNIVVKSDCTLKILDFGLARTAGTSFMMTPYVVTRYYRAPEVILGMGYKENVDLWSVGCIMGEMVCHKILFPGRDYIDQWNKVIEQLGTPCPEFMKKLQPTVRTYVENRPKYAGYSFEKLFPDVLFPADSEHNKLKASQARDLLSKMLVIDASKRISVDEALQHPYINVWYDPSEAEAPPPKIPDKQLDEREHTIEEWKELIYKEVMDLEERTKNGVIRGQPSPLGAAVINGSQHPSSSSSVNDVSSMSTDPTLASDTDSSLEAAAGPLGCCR

Substance | fold bound compared with WT [1] [fold] | ratio to parent [2]
GFP-tagged JNK1 (JNK1β) in pEGFP-C2 (enzyme) | 3 | –
Full-length FLAG-tagged MKP7 WT (1-665 aa) (from UniProt Q9BY84) Y271S | – | 0
Full-length FLAG-tagged MKP7 WT (1-665 aa) (from UniProt Q9BY84) Y271S; C244S | – | 0
